Reference: US20140024555A1 (LOS ALAMOS NATIONAL SECURITY, published 2014)

Experiments:
[1] = molecular target: T1, YheM subunit of the E. coli YheML construct, with N-terminal 6-His tag (Escherichia coli, UniProt P45531 1-119); experiment: colony filtration immobilized bead assay: 6-His subunit captured on Talon resin in agarose, GFP S11 subunit read by complemented GFP fluorescence; YheML construct with YheN omitted
T1 construct: Negative control construct in which YheN is omitted; the first subunit of each construct carries the 6-His tag; also called TusC; first subunit of Yhe ML; not shown: N-terminal 6-His tag from the N-6His pTET S11 vector
T1 sequence: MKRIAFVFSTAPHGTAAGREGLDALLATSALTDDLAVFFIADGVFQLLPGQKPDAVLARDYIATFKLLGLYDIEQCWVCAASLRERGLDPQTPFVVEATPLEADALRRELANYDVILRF

[2] = molecular target: T2, YBGK of Escherichia coli with C-terminal GFP S11 tag (Escherichia coli, UniProt P75745 1-310); experiment: colony filtration immobilized bead assay, capture plates with TNG buffer (FIG. 4B); complex 6
T2 construct: Labelled by complementation with co-expressed GFP 1-10 detector; also called last subunit of YBGJ/YBGK (predicted allophanate hydrolase); not shown: flexible linker and C-terminal GFP S11 tag of the pTET S11 vector
T2 sequence: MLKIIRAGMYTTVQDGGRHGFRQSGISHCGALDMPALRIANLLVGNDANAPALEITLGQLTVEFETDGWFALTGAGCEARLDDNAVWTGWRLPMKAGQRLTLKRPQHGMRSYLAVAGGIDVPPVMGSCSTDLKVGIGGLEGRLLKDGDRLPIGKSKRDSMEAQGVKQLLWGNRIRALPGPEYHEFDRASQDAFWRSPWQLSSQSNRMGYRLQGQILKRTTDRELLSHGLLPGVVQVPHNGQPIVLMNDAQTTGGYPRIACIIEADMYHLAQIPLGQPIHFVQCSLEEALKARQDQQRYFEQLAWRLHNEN

Binder	binding result [1]	binding result [2]
YheL subunit of the E. coli YheNML / YheML constructs, with C-terminal GFP S11 tag (other, Fluorescently labelled in the cell by complementation with co-expressed GFP 1-10 detector; also called TusB; last subunit of Yhe NML and Yhe ML; not shown: flexible linker and C-terminal GFP S11 tag (beta-strand 11, residues 215-230) of the pTET S11 vector; the S11 variant an) MLHTLHRSPWLTDFAALLRLLSEGDELLLLQDGVTAAVDGNRYLESLRNAPIKVYALNEDLIARGLTGQISNDIILIDYTDFVRLTVKHPSQMAW	no binding	
YBGJ of Escherichia coli with N-terminal 6-His tag (other, also called predicted allophanate hydrolase; not shown: N-terminal 6-His tag from the N-6His pTET S11 vector) MQRARCYLIGETAVVLELEPPVTLASQKRIWRLAQRLVDMPNVVEAIPGMNNITVILRNPESLALDAIERLQRWWEESEALEPESRFIEIPVVYGGAGGPDLAVVAAHCGLSEKQVVELHSSVEYVVWFLGFQPGFPYLGSLPEQLHTPRRAEPRLLVPAGSVGIGGPQTGVYPLATPGGWQLIGHTSLSLFDPARDEPILLRPGDSVRFVPQKEGVC		binds
